System: Escherichia coli TOP10
Assay: shrunken log2 fold change of peptide-encoding DNA abundance (4.5 h post-induction vs induction); higher = less antimicrobial activity (less host growth inhibition)
Conditions: time post-induction: 4.5 h; library: site-saturation at positions 5, 18, 19, 20
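Further: peptides expressed intracellularly from a pBAD plasmid library in pooled LB shake-flask culture, induced with 0.3% L-arabinose, DNA abundance read by NGS, three biological replicates, DESeq2 with apeglm shrinkage.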

Row | Sequence | shrunken log2 fold change
1 | RRIRQRPPRLPRPRPRPSEDPRP | -0.0593
2 | RRIRVRPPRLPRPRPRPFYPPRP | -0.441
3 | RRIRHRPPRLPRPRPRPMNIPRP | -0.214
4 | RRIRCRPPRLPRPRPRPCGNPRP | -0.278
5 | RRIRRRPPRLPRPRPRPTQFPRP | 0.384
6 | RRIRFRPPRLPRPRPRPRNLPRP | -0.016
7 | RRIRERPPRLPRPRPRPFILPRP | -0.784
8 | RRIRNRPPRLPRPRPRPIFRPRP | -0.0067
9 | RRIRGRPPRLPRPRPRPDAIPRP | 1.38
10 | RRIRTRPPRLPRPRPRPFHRPRP | -0.469
11 | RRIRNRPPRLPRPRPRPGQTPRP | 0.00913
12 | RRIRERPPRLPRPRPRPTAGPRP | 0.161
13 | RRIRNRPPRLPRPRPRPLLGPRP | 0.232
14 | RRIRPRPPRLPRPRPRPHCVPRP | -0.0495
15 | RRIRIRPPRLPRPRPRPWEGPRP | -0.152
16 | RRIRIRPPRLPRPRPRPIPHPRP | -0.297
17 | RRIRQRPPRLPRPRPRPIKTPRP | -0.0201
18 | RRIRLRPPRLPRPRPRPCLPPRP | -0.0626
19 | RRIRFRPPRLPRPRPRPDNNPRP | -0.4
20 | RRIRWRPPRLPRPRPRPQCVPRP | -0.0311
21 | RRIRIRPPRLPRPRPRPYDCPRP | 0.0019
22 | RRIRIRPPRLPRPRPRPCAMPRP | -0.424
23 | RRIRNRPPRLPRPRPRPSKQPRP | 0.00527
24 | RRIRNRPPRLPRPRPRPYPTPRP | -0.074
25 | RRIRKRPPRLPRPRPRPHGTPRP | -0.0973

Row | Sequence | shrunken log2 fold change
26 | RRIRKRPPRLPRPRPRPRRMPRP | 0.488
27 | RRIRMRPPRLPRPRPRPGQKPRP | 0.142
28 | RRIRKRPPRLPRPRPRPDYWPRP | 0.0865
29 | RRIRKRPPRLPRPRPRPHTRPRP | 0.29
30 | RRIRFRPPRLPRPRPRPTKQPRP | 0.0621
31 | RRIRARPPRLPRPRPRPPQHPRP | 0.655
32 | RRIRERPPRLPRPRPRPRTQPRP | 0.111
33 | RRIRWRPPRLPRPRPRPTALPRP | 0.257
34 | RRIRWRPPRLPRPRPRPMGYPRP | -0.132
35 | RRIRQRPPRLPRPRPRPCMAPRP | -0.117
36 | RRIRERPPRLPRPRPRPCDEPRP | 0.011
37 | RRIRYRPPRLPRPRPRPERRPRP | 0.197
38 | RRIRIRPPRLPRPRPRPRFFPRP | -0.123
39 | RRIRNRPPRLPRPRPRPELFPRP | -0.0281
40 | RRIRPRPPRLPRPRPRPGVSPRP | -0.0412
41 | RRIRPRPPRLPRPRPRPWYGPRP | -0.429
42 | RRIRKRPPRLPRPRPRPQVYPRP | -0.0614
43 | RRIRERPPRLPRPRPRPFARPRP | 0.102
44 | RRIRKRPPRLPRPRPRPLMLPRP | 0.007
45 | RRIRCRPPRLPRPRPRPEKPPRP | 0.118
46 | RRIRVRPPRLPRPRPRPQPGPRP | 0.255
47 | RRIRRRPPRLPRPRPRPTDNPRP | 0.277
48 | RRIRQRPPRLPRPRPRPRSIPRP | -0.0928
49 | RRIRRRPPRLPRPRPRPWQAPRP | 0.0707
50 | RRIRLRPPRLPRPRPRPSSNPRP | -0.211

Row | Sequence | shrunken log2 fold change
51 | RRIRGRPPRLPRPRPRPNYYPRP | -0.254
52 | RRIRERPPRLPRPRPRPSRYPRP | -0.481
53 | RRIRFRPPRLPRPRPRPKFNPRP | -0.588
54 | RRIRFRPPRLPRPRPRPDGQPRP | -0.0411
55 | RRIRPRPPRLPRPRPRPQYCPRP | -0.106
56 | RRIRGRPPRLPRPRPRPPHKPRP | 0.858
57 | RRIRHRPPRLPRPRPRPIMPPRP | -0.74
58 | RRIRQRPPRLPRPRPRPAPEPRP | 0.228
59 | RRIRARPPRLPRPRPRPTCDPRP | 0.534
60 | RRIRERPPRLPRPRPRPIVAPRP | 0.33
61 | RRIRRRPPRLPRPRPRPGVWPRP | 0.47
62 | RRIRKRPPRLPRPRPRPMYMPRP | -0.103
63 | RRIRARPPRLPRPRPRPFWAPRP | 0.218
64 | RRIRTRPPRLPRPRPRPCRLPRP | 0.0337
65 | RRIRIRPPRLPRPRPRPDYSPRP | -1.21
66 | RRIRMRPPRLPRPRPRPGYWPRP | 0.0653
67 | RRIRHRPPRLPRPRPRPAGPPRP | 0.056
68 | RRIRDRPPRLPRPRPRPRGAPRP | 0.772
69 | RRIRTRPPRLPRPRPRPTKAPRP | 0.249
70 | RRIRNRPPRLPRPRPRPNSAPRP | 0.026
71 | RRIRERPPRLPRPRPRPLWEPRP | -0.281
72 | RRIRERPPRLPRPRPRPVIIPRP | -0.634
73 | RRIRMRPPRLPRPRPRPNKDPRP | 0.0301
74 | RRIRWRPPRLPRPRPRPSIRPRP | -0.613
75 | RRIRQRPPRLPRPRPRPTYVPRP | -0.161

Row | Sequence | shrunken log2 fold change
76 | RRIRKRPPRLPRPRPRPRKPPRP | 1.65
77 | RRIRARPPRLPRPRPRPTKHPRP | 0.217
78 | RRIRNRPPRLPRPRPRPQDSPRP | -0.238
79 | RRIRLRPPRLPRPRPRPTYIPRP | -0.304
80 | RRIRERPPRLPRPRPRPFQLPRP | 0.053
81 | RRIRDRPPRLPRPRPRPIAVPRP | -0.00168
82 | RRIRWRPPRLPRPRPRPMISPRP | 0.248
83 | RRIRFRPPRLPRPRPRPKKLPRP | 0.173
84 | RRIRERPPRLPRPRPRPGFPPRP | 0.176
85 | RRIRRRPPRLPRPRPRPCGVPRP | 0.0719
86 | RRIRRRPPRLPRPRPRPQVIPRP | -0.0307
87 | RRIRCRPPRLPRPRPRPIMAPRP | -0.236
88 | RRIRRRPPRLPRPRPRPYMIPRP | -0.263
89 | RRIRIRPPRLPRPRPRPKGLPRP | 0.121
90 | RRIRFRPPRLPRPRPRPPVKPRP | -0.00563
91 | RRIRRRPPRLPRPRPRPLYCPRP | -0.115
92 | RRIRPRPPRLPRPRPRPKIRPRP | -0.137
93 | RRIRPRPPRLPRPRPRPESQPRP | -0.0975
94 | RRIRERPPRLPRPRPRPHCAPRP | 0.201
95 | RRIRDRPPRLPRPRPRPCAHPRP | 0.07
96 | RRIRKRPPRLPRPRPRPKTWPRP | 0.344
97 | RRIRKRPPRLPRPRPRPIDLPRP | -0.0822
98 | RRIRNRPPRLPRPRPRPCITPRP | -0.049
99 | RRIRWRPPRLPRPRPRPWFVPRP | -0.168
100 | RRIRKRPPRLPRPRPRPNVKPRP | 0.0115

Row | Sequence | shrunken log2 fold change
101 | RRIRCRPPRLPRPRPRPEFVPRP | 0.105
102 | RRIRPRPPRLPRPRPRPFWEPRP | -0.0196
103 | RRIRPRPPRLPRPRPRPEHSPRP | -0.0353
104 | RRIRKRPPRLPRPRPRPPGPPRP | 1.04
105 | RRIRFRPPRLPRPRPRPAKAPRP | 0.26
106 | RRIRIRPPRLPRPRPRPYHFPRP | -0.248
107 | RRIRHRPPRLPRPRPRPMHFPRP | -0.0161
108 | RRIRQRPPRLPRPRPRPLINPRP | -0.305
109 | RRIRFRPPRLPRPRPRPIQKPRP | 0.00595
110 | RRIRWRPPRLPRPRPRPVGTPRP | 0.235
111 | RRIRTRPPRLPRPRPRPSWNPRP | -0.34
112 | RRIRDRPPRLPRPRPRPYLYPRP | -0.0408
113 | RRIRQRPPRLPRPRPRPDICPRP | -0.0144
114 | RRIRIRPPRLPRPRPRPHKWPRP | -0.256
115 | RRIRQRPPRLPRPRPRPYICPRP | -0.102
116 | RRIRNRPPRLPRPRPRPKEMPRP | -0.0529
117 | RRIRLRPPRLPRPRPRPISFPRP | -0.158
118 | RRIRDRPPRLPRPRPRPTVHPRP | 0.231
119 | RRIRQRPPRLPRPRPRPGILPRP | -0.181
120 | RRIRKRPPRLPRPRPRPKPDPRP | 0.861
121 | RRIRMRPPRLPRPRPRPWYIPRP | -0.167
122 | RRIRIRPPRLPRPRPRPDNVPRP | 0.0156
123 | RRIRERPPRLPRPRPRPCEEPRP | -0.125
124 | RRIRHRPPRLPRPRPRPTYEPRP | 0.15
125 | RRIRARPPRLPRPRPRPRLNPRP | 0.316

Row | Sequence | shrunken log2 fold change
126 | RRIRWRPPRLPRPRPRPGHMPRP | -0.0823
127 | RRIRGRPPRLPRPRPRPFWYPRP | -0.0145
128 | RRIRKRPPRLPRPRPRPACEPRP | 0.168
129 | RRIRKRPPRLPRPRPRPRMNPRP | 0.115
130 | RRIRVRPPRLPRPRPRPAWMPRP | 0.0871
131 | RRIRKRPPRLPRPRPRPHHLPRP | -0.232
132 | RRIRDRPPRLPRPRPRPWLLPRP | 0.0241
133 | RRIRVRPPRLPRPRPRPELRPRP | 0.123
134 | RRIRQRPPRLPRPRPRPKPQPRP | -0.0342
135 | RRIRKRPPRLPRPRPRPQDEPRP | -0.0149
136 | RRIRLRPPRLPRPRPRPQDDPRP | -0.224
137 | RRIRSRPPRLPRPRPRPTFHPRP | -0.192
138 | RRIRCRPPRLPRPRPRPNLTPRP | -0.162
139 | RRIRERPPRLPRPRPRPGARPRP | 0.255
140 | RRIRARPPRLPRPRPRPWYWPRP | 0.0283
141 | RRIRGRPPRLPRPRPRPYYGPRP | -0.289
142 | RRIRDRPPRLPRPRPRPLCYPRP | 0.00826
143 | RRIRRRPPRLPRPRPRPLKDPRP | -0.152
144 | RRIRARPPRLPRPRPRPCYGPRP | -0.246
145 | RRIRHRPPRLPRPRPRPRCRPRP | 0.615
146 | RRIRMRPPRLPRPRPRPACDPRP | 0.974
147 | RRIRRRPPRLPRPRPRPRCIPRP | 0.174
148 | RRIRERPPRLPRPRPRPRKRPRP | 0.255
149 | RRIRPRPPRLPRPRPRPGELPRP | 0.192
150 | RRIRARPPRLPRPRPRPLERPRP | -0.0328
